Data: article PMC3101628 (Nature structural & molecular biology, 2011)
Each block holds one binder with its values, some of them ahead of it.

Key:
Assay in all cases: SEC
[1] = molecular target: T1, S. cerevisiae ribonucleotide reductase RR1 (ScRR1), wild type (S. cerevisiae, UniProt P21524 1-888)
T1 sequence: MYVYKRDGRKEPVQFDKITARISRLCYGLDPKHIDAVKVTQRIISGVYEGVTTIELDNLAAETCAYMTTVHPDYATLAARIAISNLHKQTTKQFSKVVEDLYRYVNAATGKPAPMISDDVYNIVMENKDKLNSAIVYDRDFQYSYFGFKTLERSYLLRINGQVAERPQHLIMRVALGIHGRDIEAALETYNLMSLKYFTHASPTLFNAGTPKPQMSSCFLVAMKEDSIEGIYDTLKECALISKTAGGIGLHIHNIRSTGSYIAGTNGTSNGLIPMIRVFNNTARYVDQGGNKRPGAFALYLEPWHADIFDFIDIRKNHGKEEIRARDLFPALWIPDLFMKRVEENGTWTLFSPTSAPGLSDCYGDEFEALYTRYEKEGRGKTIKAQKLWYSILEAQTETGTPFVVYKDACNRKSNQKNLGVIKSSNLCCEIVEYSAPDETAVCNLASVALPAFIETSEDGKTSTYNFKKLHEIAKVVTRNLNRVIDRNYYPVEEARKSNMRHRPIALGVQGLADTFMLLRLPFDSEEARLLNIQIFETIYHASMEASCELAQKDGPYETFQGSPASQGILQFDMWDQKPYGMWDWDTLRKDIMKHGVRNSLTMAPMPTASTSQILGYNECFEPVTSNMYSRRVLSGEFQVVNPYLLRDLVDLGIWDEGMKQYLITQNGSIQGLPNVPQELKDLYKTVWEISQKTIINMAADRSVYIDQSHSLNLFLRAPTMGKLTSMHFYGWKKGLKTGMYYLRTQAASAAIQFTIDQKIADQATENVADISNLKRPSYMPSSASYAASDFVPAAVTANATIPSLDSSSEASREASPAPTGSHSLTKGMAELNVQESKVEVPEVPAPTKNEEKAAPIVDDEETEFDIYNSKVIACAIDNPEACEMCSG

SEC = molecular target: the molecule itself
[2] = molecular target: T2, hRRM1 with the first 74 residues deleted (t-hRRM1) (human, UniProt P23921 75-792)
T2 sequence (looked up): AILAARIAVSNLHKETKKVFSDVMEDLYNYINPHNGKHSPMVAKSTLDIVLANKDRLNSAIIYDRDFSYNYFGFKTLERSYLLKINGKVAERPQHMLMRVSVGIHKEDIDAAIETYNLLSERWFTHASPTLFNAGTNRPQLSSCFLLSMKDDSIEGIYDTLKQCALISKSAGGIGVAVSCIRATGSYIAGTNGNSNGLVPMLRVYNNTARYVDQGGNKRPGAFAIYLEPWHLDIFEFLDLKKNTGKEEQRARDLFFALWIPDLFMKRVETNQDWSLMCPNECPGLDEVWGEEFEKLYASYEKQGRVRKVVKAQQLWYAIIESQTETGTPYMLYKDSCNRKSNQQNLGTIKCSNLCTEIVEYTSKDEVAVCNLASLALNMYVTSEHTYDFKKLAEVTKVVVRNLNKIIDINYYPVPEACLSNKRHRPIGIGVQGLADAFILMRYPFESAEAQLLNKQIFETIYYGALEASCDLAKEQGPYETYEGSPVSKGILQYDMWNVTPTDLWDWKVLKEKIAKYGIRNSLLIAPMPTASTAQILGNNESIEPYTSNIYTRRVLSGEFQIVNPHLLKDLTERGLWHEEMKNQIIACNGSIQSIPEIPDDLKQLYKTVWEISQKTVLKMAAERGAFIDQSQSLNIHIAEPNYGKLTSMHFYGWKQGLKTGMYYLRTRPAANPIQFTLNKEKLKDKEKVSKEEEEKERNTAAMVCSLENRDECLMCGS

binding result [1]: binds
B1: yeast RR2●RR4 hetero-dimer (ScRR2●ScRR4) (complex, S. cerevisiae)
chain 1: MPKETPSKAAADALSDLEIKDSKSNLNKELETLREENRVKSDMLKEKLSKDAENHKAYLKSHQVHRHKLKEMEKEEPLLNEDKERTVLFPIKYHEIWQAYKRAEASFWTAEEIDLSKDIHDWNNRMNENERFFISRVLAFFAASDGIVNENLVENFSTEVQIPEAKSFYGFQIMIENIHSETYSLLIDTYIKDPKESEFLFNAIHTIPEIGEKAEWALRWIQDADALFGERLVAFASIEGVFFSGSFASIFWLKKRGMMPGLTFSNELICRDEGLHTDFACLLFAHLKNKPDPAIVEKIVTEAVEIEQRYFLDALPVALLGMNADLMNQYVEFVADRLLVAFGNKKYYKVENPFDFMENISLAGKTNFFEKRVSDYQKAGVMSKSTKQEAGAFTFNEDF
chain 2: MEAHNQFLKTFQKERHDMKEAEKDEILLMENSRRFVMFPIKYHEIWAAYKKVEASFWTAEEIELAKDTEDFQKLTDDQKTYIGNLLALSISSDNLVNKYLIENFSAQLQNPEGKSFYGFQIMMENIYSEVYSMMVDAFFKDPKNIPLFKEIANLPEVKHKAAFIERWISNDDSLYAERLVAFAAKEGIFQAGNYASMFWLTDKKIMPGLAMANRNICRDRGAYTDFSCLLFAHLRTKPNPKIIEKIITEAVEIEKEYYSNSLPVEKFGMDLKSIHTYIEFVADGLLQGFGNEKYYNAVNPFEFMEDVATAGKTTFFEKKVSDYQKASDMSKSATPSKEINFDDDF

binding result [2]: binds
B2: human ribonucleotide reductase small subunit hRRM2 (enzyme, UniProt P31350 1-389, looked up)
chain: MLSLRVPLAPITDPQQLQLSPLKGLSLVDKENTPPALSGTRVLASKTARRIFQEPTEPKTKAAAPGVEDEPLLRENPRRFVIFPIEYHDIWQMYKKAEASFWTAEEVDLSKDIQHWESLKPEERYFISHVLAFFAASDGIVNENLVERFSQEVQITEARCFYGFQIAMENIHSEMYSLLIDTYIKDPKEREFLFNAIETMPCVKKKADWALRWIGDKEATYGERVVAFAAVEGIFFSGSFASIFWLKKRGLMPGLTFSNELISRDEGLHCDFACLMFKHLVHKPSEERVREIIINAVRIEQEFLTEALPVKLIGMNCTLMKQYIEFVADRLMLELGFSKVFRVENPFDFMENISLEGKTNFFEKRVGEYQRMGVMSSPTENSFTLDADF
stoichiometry N (SEC): 2
